Source: publication PMC11791991 (2024)
Ends that are not written are not given here.

Target: T1, LZ-Y
T1 chain: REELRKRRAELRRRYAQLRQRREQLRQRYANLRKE
Assay: QRET time-resolved luminescence

- Kd: 21 nM
Binder: KDTLQAETDQLEDEKSALQTEIANLLKEKEKLEFIL (also: nonadentate Eu(III) chelate label, position not given here) [EuLZ (leucine zipper peptide LZ, Eu-chelate labeled)]
